Laboratory results as given in US20230272055A1, “ANTI-MUTANT CALRETICULIN (CALR) ANTIBODIES AND USES THEREOF” (Incyte Corporation, priority 2021, published 2023).

Tests used:
[1] = biological target: Human Type 1 mutCALR (human); experiment: cell-based or functional assay
[2] = biological target: recombinant Flag tag_GFP_tev_hmutCALR Type 1 (human); experiment: HTRF competition against the mutCALR/MPL complex

## AB1: CAL2 antibody, Dianova
[1]
  IC50 of inhibition of cell proliferation (BaF3 cells expressing MPL/mutCALR Type 1): > 60 µg/mL

## CAL2 antibody (Dianova)
[2]
  concentration at which some signal inhibition was seen: > 100 nM
